B1: SC1 scFv HJ8.5 HA (scFv)
scFv: DIVLTQSPASLAVSLGQRATISCRASQSVSTSRYSYIHWYQQKPGQPPKLLIKYASNLESGVPARFSGSGSGTDFTLNIHPLEEEDAATYYCHHSWEIPLTFGAGTKLELKGGGSEVKVEESGGGLVQPGGSMKLSCVVSGFTFSNYWVNWVRQSPEKGLEWVAQIRLKSDNYATHYEESVKGRFTISRDDSKSSVYLQMNNLRAEDSGIYYCTNWEDYWGQGTTLTVSSYPYDVPDYA
notes: Encoded with an N-terminal secretory signal peptide (SP), left out here because the secreted protein was tested; also called HJ8.5 scFv SC1
B2: SC3 scFv HJ8.5 HA (scFv)
scFv: DIVLTQSPASLAVSLGQRATISCRASQSVSTSRYSYIHWYQQKPGQPPKLLIKYASNLESGVPARFSGSGSGTDFTLNIHPLEEEDAATYYCHHSWEIPLTFGAGTKLELKSGGGSGGGSGGGSEVKVEESGGGLVQPGGSMKLSCVVSGFTFSNYWVNWVRQSPEKGLEWVAQIRLKSDNYATHYEESVKGRFTISRDDSKSSVYLQMNNLRAEDSGIYYCTNWEDYWGQGTTLTVSSYPYDVPDYA
notes: Encoded with an N-terminal secretory signal peptide (SP), left out here because the secreted protein was tested; also called HJ8.5 scFv SC3

Molecular target: T1, mouse tau (mouse, UniProt P10637-2 2-430, limits assumed)
T1 construct: also called mouse brain lysate comprising tau
Assay: Western blot of mouse brain lysate probed with the scFv (FIG. 4)
Description: FIG. 4 depicts Western blots showing that the scFv's detect human but not mouse tau. Mouse brain lysate comprising tau and recombinant human tau were both run on a gel and the scFv's SC1 (A) and SC3 (B) were used to detect tau. Recombinant human tau was detected by SC1 and SC3; mouse tau was not. Anti-vinculin Western blot was used as a loading control for tissue samples.

T1 sequence (P10637 other isoform, or with tags, fused parts or gaps limits assumed): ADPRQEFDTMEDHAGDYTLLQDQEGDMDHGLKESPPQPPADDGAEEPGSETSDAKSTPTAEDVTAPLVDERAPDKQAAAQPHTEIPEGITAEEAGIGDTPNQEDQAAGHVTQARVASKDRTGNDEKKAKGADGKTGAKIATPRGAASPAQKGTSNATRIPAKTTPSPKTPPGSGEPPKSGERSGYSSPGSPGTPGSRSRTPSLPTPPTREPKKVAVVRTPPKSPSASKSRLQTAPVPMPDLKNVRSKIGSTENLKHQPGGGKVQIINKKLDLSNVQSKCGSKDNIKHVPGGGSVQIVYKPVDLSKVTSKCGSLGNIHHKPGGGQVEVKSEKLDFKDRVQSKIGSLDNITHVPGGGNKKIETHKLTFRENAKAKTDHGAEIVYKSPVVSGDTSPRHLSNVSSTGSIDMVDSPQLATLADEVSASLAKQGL

| Binder | binding result |
| --- | --- |
| B1 | no binding |
| B2 | no binding |

— patent publication US20180016328A1 (WASHINGTON UNIVERSITY, published 2018)
